{"source": "patent US7193044", "key": {"[1]": {"system": "T1, Full-length BAD (wildtype), in vitro translated, 35S-methionine labelled, buffer control", "T1 sequence": "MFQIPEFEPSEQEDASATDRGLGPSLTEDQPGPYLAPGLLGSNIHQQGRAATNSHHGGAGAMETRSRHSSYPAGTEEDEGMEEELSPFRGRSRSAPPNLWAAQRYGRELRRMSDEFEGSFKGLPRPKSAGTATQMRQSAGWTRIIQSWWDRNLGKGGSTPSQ"}, "[2]": {"system": "T2, GST-BAD (GST-tagged shorter murine BAD)", "T2 sequence": "T1 sequence"}, "[3]": {"system": "GST-BAD S112A [GST: P08515]"}, "[4]": {"system": "GST-BAD S112A/S136A/S155A"}}}
{"substance": "PKA (cAMP-dependent protein kinase), catalytic subunit from bovine heart", "values": [{"measurement": "gel-mobility shift after incubation with PKA and ATP", "setting": "[1]", "value": "phosphorylation by PKA induced a gel-mobility shift of wild-type BAD"}, {"measurement": "in vitro phosphorylation (32P incorporation, autoradiography)", "setting": "[2]", "value": "the shorter murine BAD, and BAD mutants containing mutations at the serine at a position corresponding to Ser112 and/or Ser136, were good in vitro substrates for PKA"}, {"measurement": "in vitro phosphorylation (32P incorporation, autoradiography)", "setting": "[3]", "value": "the shorter murine BAD, and BAD mutants containing mutations at the serine at a position corresponding to Ser112 and/or Ser136, were good in vitro substrates for PKA"}, {"measurement": "in vitro phosphorylation (32P incorporation, autoradiography)", "setting": "[4]", "value": "abolished phosphorylation of the triple mutant GST-BAD S112A/S135A/S155A"}, {"measurement": "in vitro phosphorylation (32P incorporation, autoradiography)", "setting": "GST-BAD S112A/S136A", "value": "the shorter murine BAD, and BAD mutants containing mutations at the serine at a position corresponding to Ser112 and/or Ser136, were good in vitro substrates for PKA"}, {"measurement": "in vitro phosphorylation (32P incorporation, autoradiography)", "setting": "GST-BAD S136A", "value": "the shorter murine BAD, and BAD mutants containing mutations at the serine at a position corresponding to Ser112 and/or Ser136, were good in vitro substrates for PKA"}, {"measurement": "in vitro phosphorylation (32P incorporation, autoradiography)", "setting": "GST-BAD S155A", "value": "dramatically reduced the phosphorylation of the single mutant GST-BAD S155A"}]}
